Values belong to the binder of their own block, whether it stands above or below them.
Target: T1, LRP6E1E2 (UniProt O75581 20-630)
T1 construct: domain: E1E2; also called LRP6 E1E2 domains
T1 sequence (looked up): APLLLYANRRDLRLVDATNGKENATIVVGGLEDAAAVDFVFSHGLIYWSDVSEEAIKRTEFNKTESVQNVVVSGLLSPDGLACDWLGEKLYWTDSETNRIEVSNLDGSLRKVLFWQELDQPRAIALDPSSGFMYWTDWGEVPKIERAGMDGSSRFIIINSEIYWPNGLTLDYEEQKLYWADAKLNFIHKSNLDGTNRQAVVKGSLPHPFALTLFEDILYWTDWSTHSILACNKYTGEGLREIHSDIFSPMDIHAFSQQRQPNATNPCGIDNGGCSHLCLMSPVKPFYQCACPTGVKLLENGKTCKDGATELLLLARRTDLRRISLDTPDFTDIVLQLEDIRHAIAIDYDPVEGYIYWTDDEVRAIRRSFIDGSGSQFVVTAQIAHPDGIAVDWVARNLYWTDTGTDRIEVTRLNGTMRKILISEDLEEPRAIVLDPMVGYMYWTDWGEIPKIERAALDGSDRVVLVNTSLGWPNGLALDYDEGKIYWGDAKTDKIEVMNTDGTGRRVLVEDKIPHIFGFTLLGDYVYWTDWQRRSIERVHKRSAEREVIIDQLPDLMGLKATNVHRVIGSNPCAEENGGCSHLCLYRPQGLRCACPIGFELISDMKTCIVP
Test: BLI (Octet), FIG. 11B

B2: F1:15:L1:Fc (bispecific antibody)
chain: EVQLVESGGGLVQPGGSLRLSCAASGFTFSHYTLSWVRQAPGKGLEWVSVISGDGSYTYYADSVKGRFTISSDNSKNTLYLQMNSLRAEDTAVYYCARNFIKYVFANWGQGTLVTVSSGGGGSGGGGSGGGGSDIELTQPPSVSVAPGQTARISCSGDNIGSFYVHWYQQKPGQAPVLVIYDKSNRPSGIPERFSGSNSGNTATLTISGTQAEDEADYYCQSYANTLSLVFGGGTKLTVLGSGSGGSGSGGSSGGDVKLVESGGGLVKLGGSLRLSCAASGFSFSTSYMSWVRQTPEKRLELVAAINLNGGSTYYSDTVKGRFTISRDNAKNTLYLQMSSLKSEDTAFYYCASELAGYGTPFAYWGQGTLVTVSAGSAASGSSGGSSSGADIVLTQSPATLSVTPGDSVSLSCKASQSISYNLHWYQQKSHESPRLLIKYTSQSISGIPSRFSGSGSGTDFTLTINNVETEDFGMYFCQQSNSWPLTFGAGTKLEVKGSGSGDKTHTCPPCPAPEAAGGPSVFLFPPKPKDTLMISRTPEVTCVVVDVSHEDPEVKFNWYVDGVEVHNAKTKPREEQYNSTYRVVSVLTVLHQDWLNGKEYKCKVSNKALGAPIEKTISKAKGQPREPQVYTLPPSREEMTKNQVSLTCLVKGFYPSDIAVEWESNGQPENNYKTTPPVLDSDGSFFLYSKLTVDKSRWQQGNVFSCSVMHEALHNHYTQKSLSLSPGK
notes: 2:2 tandem scFv-Fc
binding result: binds

B4: L1:15:F1:Fc (bispecific antibody)
chain: DVKLVESGGGLVKLGGSLRLSCAASGFSFSTSYMSWVRQTPEKRLELVAAINLNGGSTYYSDTVKGRFTISRDNAKNTLYLQMSSLKSEDTAFYYCASELAGYGTPFAYWGQGTLVTVSAGSAASGSSGGSSSGADIVLTQSPATLSVTPGDSVSLSCKASQSISYNLHWYQQKSHESPRLLIKYTSQSISGIPSRFSGSGSGTDFTLTINNVETEDFGMYFCQQSNSWPLTFGAGTKLEVKGSGSGGSGSGGSSGGEVQLVESGGGLVQPGGSLRLSCAASGFTFSHYTLSWVRQAPGKGLEWVSVISGDGSYTYYADSVKGRFTISSDNSKNTLYLQMNSLRAEDTAVYYCARNFIKYVFANWGQGTLVTVSSGGGGSGGGGSGGGGSDIELTQPPSVSVAPGQTARISCSGDNIGSFYVHWYQQKPGQAPVLVIYDKSNRPSGIPERFSGSNSGNTATLTISGTQAEDEADYYCQSYANTLSLVFGGGTKLTVLGSGSGDKTHTCPPCPAPEAAGGPSVFLFPPKPKDTLMISRTPEVTCVVVDVSHEDPEVKFNWYVDGVEVHNAKTKPREEQYNSTYRVVSVLTVLHQDWLNGKEYKCKVSNKALGAPIEKTISKAKGQPREPQVYTLPPSREEMTKNQVSLTCLVKGFYPSDIAVEWESNGQPENNYKTTPPVLDSDGSFFLYSKLTVDKSRWQQGNVFSCSVMHEALHNHYTQKSLSLSPGK
notes: 2:2 tandem scFv-Fc
binding result: binds

B6: L1:10:F1:Fc (bispecific antibody)
chain: DVKLVESGGGLVKLGGSLRLSCAASGFSFSTSYMSWVRQTPEKRLELVAAINLNGGSTYYSDTVKGRFTISRDNAKNTLYLQMSSLKSEDTAFYYCASELAGYGTPFAYWGQGTLVTVSAGSAASGSSGGSSSGADIVLTQSPATLSVTPGDSVSLSCKASQSISYNLHWYQQKSHESPRLLIKYTSQSISGIPSRFSGSGSGTDFTLTINNVETEDFGMYFCQQSNSWPLTFGAGTKLEVKGSGSGGSGSGEVQLVESGGGLVQPGGSLRLSCAASGFTFSHYTLSWVRQAPGKGLEWVSVISGDGSYTYYADSVKGRFTISSDNSKNTLYLQMNSLRAEDTAVYYCARNFIKYVFANWGQGTLVTVSSGGGGSGGGGSGGGGSDIELTQPPSVSVAPGQTARISCSGDNIGSFYVHWYQQKPGQAPVLVIYDKSNRPSGIPERFSGSNSGNTATLTISGTQAEDEADYYCQSYANTLSLVFGGGTKLTVLGSGSGDKTHTCPPCPAPEAAGGPSVFLFPPKPKDTLMISRTPEVTCVVVDVSHEDPEVKFNWYVDGVEVHNAKTKPREEQYNSTYRVVSVLTVLHQDWLNGKEYKCKVSNKALGAPIEKTISKAKGQPREPQVYTLPPSREEMTKNQVSLTCLVKGFYPSDIAVEWESNGQPENNYKTTPPVLDSDGSFFLYSKLTVDKSRWQQGNVFSCSVMHEALHNHYTQKSLSLSPGK
notes: 2:2 tandem scFv-Fc
binding result: binds

The next lines start with the values.

binding result: binds
B1: F1:10:L1:Fc (bispecific antibody)
chain: EVQLVESGGGLVQPGGSLRLSCAASGFTFSHYTLSWVRQAPGKGLEWVSVISGDGSYTYYADSVKGRFTISSDNSKNTLYLQMNSLRAEDTAVYYCARNFIKYVFANWGQGTLVTVSSGGGGSGGGGSGGGGSDIELTQPPSVSVAPGQTARISCSGDNIGSFYVHWYQQKPGQAPVLVIYDKSNRPSGIPERFSGSNSGNTATLTISGTQAEDEADYYCQSYANTLSLVFGGGTKLTVLGSGSGGSGSGDVKLVESGGGLVKLGGSLRLSCAASGFSFSTSYMSWVRQTPEKRLELVAAINLNGGSTYYSDTVKGRFTISRDNAKNTLYLQMSSLKSEDTAFYYCASELAGYGTPFAYWGQGTLVTVSAGSAASGSSGGSSSGADIVLTQSPATLSVTPGDSVSLSCKASQSISYNLHWYQQKSHESPRLLIKYTSQSISGIPSRFSGSGSGTDFTLTINNVETEDFGMYFCQQSNSWPLTFGAGTKLEVKGSGSGDKTHTCPPCPAPEAAGGPSVFLFPPKPKDTLMISRTPEVTCVVVDVSHEDPEVKFNWYVDGVEVHNAKTKPREEQYNSTYRVVSVLTVLHQDWLNGKEYKCKVSNKALGAPIEKTISKAKGQPREPQVYTLPPSREEMTKNQVSLTCLVKGFYPSDIAVEWESNGQPENNYKTTPPVLDSDGSFFLYSKLTVDKSRWQQGNVFSCSVMHEALHNHYTQKSLSLSPGK
notes: 2:2 tandem scFv-Fc

binding result: binds
B3: L1:5:F1:Fc (bispecific antibody)
chain: DVKLVESGGGLVKLGGSLRLSCAASGFSFSTSYMSWVRQTPEKRLELVAAINLNGGSTYYSDTVKGRFTISRDNAKNTLYLQMSSLKSEDTAFYYCASELAGYGTPFAYWGQGTLVTVSAGSAASGSSGGSSSGADIVLTQSPATLSVTPGDSVSLSCKASQSISYNLHWYQQKSHESPRLLIKYTSQSISGIPSRFSGSGSGTDFTLTINNVETEDFGMYFCQQSNSWPLTFGAGTKLEVKGSGSGEVQLVESGGGLVQPGGSLRLSCAASGFTFSHYTLSWVRQAPGKGLEWVSVISGDGSYTYYADSVKGRFTISSDNSKNTLYLQMNSLRAEDTAVYYCARNFIKYVFANWGQGTLVTVSSGGGGSGGGGSGGGGSDIELTQPPSVSVAPGQTARISCSGDNIGSFYVHWYQQKPGQAPVLVIYDKSNRPSGIPERFSGSNSGNTATLTISGTQAEDEADYYCQSYANTLSLVFGGGTKLTVLGSGSGDKTHTCPPCPAPEAAGGPSVFLFPPKPKDTLMISRTPEVTCVVVDVSHEDPEVKFNWYVDGVEVHNAKTKPREEQYNSTYRVVSVLTVLHQDWLNGKEYKCKVSNKALGAPIEKTISKAKGQPREPQVYTLPPSREEMTKNQVSLTCLVKGFYPSDIAVEWESNGQPENNYKTTPPVLDSDGSFFLYSKLTVDKSRWQQGNVFSCSVMHEALHNHYTQKSLSLSPGK

binding result: binds
B5: F1:5:L1:Fc (bispecific antibody)
chain: EVQLVESGGGLVQPGGSLRLSCAASGFTFSHYTLSWVRQAPGKGLEWVSVISGDGSYTYYADSVKGRFTISSDNSKNTLYLQMNSLRAEDTAVYYCARNFIKYVFANWGQGTLVTVSSGGGGSGGGGSGGGGSDIELTQPPSVSVAPGQTARISCSGDNIGSFYVHWYQQKPGQAPVLVIYDKSNRPSGIPERFSGSNSGNTATLTISGTQAEDEADYYCQSYANTLSLVFGGGTKLTVLGSGSGDVKLVESGGGLVKLGGSLRLSCAASGFSFSTSYMSWVRQTPEKRLELVAAINLNGGSTYYSDTVKGRFTISRDNAKNTLYLQMSSLKSEDTAFYYCASELAGYGTPFAYWGQGTLVTVSAGSAASGSSGGSSSGADIVLTQSPATLSVTPGDSVSLSCKASQSISYNLHWYQQKSHESPRLLIKYTSQSISGIPSRFSGSGSGTDFTLTINNVETEDFGMYFCQQSNSWPLTFGAGTKLEVKGSGSGDKTHTCPPCPAPEAAGGPSVFLFPPKPKDTLMISRTPEVTCVVVDVSHEDPEVKFNWYVDGVEVHNAKTKPREEQYNSTYRVVSVLTVLHQDWLNGKEYKCKVSNKALGAPIEKTISKAKGQPREPQVYTLPPSREEMTKNQVSLTCLVKGFYPSDIAVEWESNGQPENNYKTTPPVLDSDGSFFLYSKLTVDKSRWQQGNVFSCSVMHEALHNHYTQKSLSLSPGK
notes: 2:2 tandem scFv-Fc
